Measured values taken from the supplement of paper PMC7877785.
± gives the uncertainty stated by the source.

Experiment: self-splicing fitness, log relative to wild type (ln ratio); higher = more splicing; Tetrahymena group I intron in knt gene, E. coli kanamycin selection, DiMSum; sequences stand for … in CUCUCU…GGAGGGAAAAGUUAUCAGGCAUGCACCUGGUAGCUAGUCUUUAAACCAAUAGAUUGCAUCGGUUUAAAAGGCAAGACCGUCAAAUUGCGGGAAAGGGGUCAACAGCCGUUCAGUACCAAGUCUCAGGGGAAACUUUGAGAUGGCCUUGCAAAGGGUAUGGUAAUAAGCUGACGGACAUGGUCCUAACCACGCAGCCAAGUCCUAAGUCAACAGAUCUUCUGUUGAUAUGGAUGCAGUUCACAGACUAAAUGUCGGUCGGGGAAGAUGUAUUCUUCUCAUAAGAUAUAGUCGGACCUCUCCUUAAUGGGAGCUAGCGGAUGAAGUGAUGCAACACUGGAGCCGCUGGGAACUAAUUUGUAUGCGAAAGUAUAUUGAUUAGUUUUGGAGUACUCGUGGUCG
Method in brief: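 Fitness was computed with DiMSum as the error-weighted combination of replicate fold changes, kanamycin versus none, each normalised to wild type. The library randomised all eight intron nucleotides of the P1ex region, with the intron placed in the knt kanamycin-resistance gene on pET-22b(+) in E. coli BL21(DE3). Six replicate transformations were grown overnight at 37°C or 30°C on LB agar with or without 25 μg/mL kanamycin, plus 100 μg/mL carbenicillin, 50 μM IPTG and 0.2% rhamnose. Pooled colonies were amplicon-sequenced on an Illumina HiSeq 2500.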

Row | Sequence | self-splicing fitness (ln) (30 °C) | self-splicing fitness (ln) (37 °C)
1 | CACAAGCAAUAUUACGUCAC | -3.24 ± 0.19 | -2.62 ± 0.22
2 | CACAAGCAAUAUUACGUCUA | -1.42 ± 0.087 | -1.26 ± 0.084
3 | CACAAGCAAUAUUACGUUAU | -2.95 ± 0.098 | -2.7 ± 0.11
4 | CACAAGCAAUAUUACGUUUC | -3.53 ± 0.19 | -1.8 ± 0.17
5 | CACCAGCAAUAUUACGAACC | -3.66 ± 0.28 | -0.707 ± 0.25
6 | CACCAGCAAUAUUACGAAGU | -3.79 ± 0.16 | -1.46 ± 0.11
7 | CACCAGCAAUAUUACGAGGA | -2.74 ± 0.14 | -1.91 ± 0.13
8 | CACCAGCAAUAUUACGAUUG | -0.914 ± 0.046 | -0.088 ± 0.072
9 | CACCAGCAAUAUUACGCAGG | -3.09 ± 0.1 | -1.64 ± 0.1
10 | CACCAGCAAUAUUACGCCAA | -2.95 ± 0.28 | -3.23 ± 0.3
11 | CACCAGCAAUAUUACGCCCC | -3.28 ± 0.38 | –
12 | CACCAGCAAUAUUACGCCUC | -3.14 ± 0.23 | -1.9 ± 0.2
13 | CACCAGCAAUAUUACGCGCC | -2.68 ± 0.17 | -2.4 ± 0.2
14 | CACCAGCAAUAUUACGCUUU | -3.8 ± 0.14 | -1.94 ± 0.093
15 | CACCAGCAAUAUUACGGACC | -2.62 ± 0.21 | -1.72 ± 0.21
16 | CACCAGCAAUAUUACGGCAA | -1.68 ± 0.099 | -0.956 ± 0.1
17 | CACCAGCAAUAUUACGGCGG | -0.993 ± 0.065 | -0.567 ± 0.079
18 | CACCAGCAAUAUUACGGGAA | -1.05 ± 0.059 | -1.07 ± 0.075
19 | CACCAGCAAUAUUACGUAAA | -3.49 ± 0.15 | -1.6 ± 0.11
20 | CACCAGCAAUAUUACGUAGA | -1.46 ± 0.052 | -0.916 ± 0.064
21 | CACCAGCAAUAUUACGUCGG | -1.36 ± 0.059 | -0.518 ± 0.072
22 | CACCAGCAAUAUUACGUCUA | -2.84 ± 0.091 | -1.79 ± 0.091
23 | CACCAGCAAUAUUACGUCUG | -1.55 ± 0.056 | -0.504 ± 0.07
24 | CACCAGCAAUAUUACGUGAG | -3.8 ± 0.16 | -2.26 ± 0.14

Row | Sequence | self-splicing fitness (ln) (30 °C) | self-splicing fitness (ln) (37 °C)
25 | CACCAGCAAUAUUACGUGGA | -3.55 ± 0.12 | -2.12 ± 0.09
26 | CACGAGCAAUAUUACGAACG | -0.211 ± 0.12 | 0.033 ± 0.14
27 | CACGAGCAAUAUUACGAGUC | – | -1.63 ± 0.29
28 | CACGAGCAAUAUUACGAUCG | -1.14 ± 0.077 | -0.291 ± 0.083
29 | CACGAGCAAUAUUACGCCCA | -1.81 ± 0.4 | -1.72 ± 0.28
30 | CACGAGCAAUAUUACGCCGU | -3 ± 0.21 | -2.26 ± 0.18
31 | CACGAGCAAUAUUACGCGAU | -3.23 ± 0.21 | -2.51 ± 0.41
32 | CACGAGCAAUAUUACGCGCU | -4.22 ± 0.21 | -2.01 ± 0.19
33 | CACGAGCAAUAUUACGCUAU | -2.42 ± 0.21 | -2.56 ± 0.28
34 | CACGAGCAAUAUUACGCUGA | -3.57 ± 0.37 | -2.02 ± 0.3
35 | CACGAGCAAUAUUACGCUGG | -3.66 ± 0.16 | -2.32 ± 0.16
36 | CACGAGCAAUAUUACGCUUU | -3.71 ± 0.22 | -2.89 ± 0.2
37 | CACGAGCAAUAUUACGGGCG | -0.98 ± 0.11 | -1.14 ± 0.15
38 | CACGAGCAAUAUUACGGGCU | -4.17 ± 0.22 | -3.5 ± 0.46
39 | CACGAGCAAUAUUACGGUCA | -4.22 ± 0.39 | -1.54 ± 0.16
40 | CACGAGCAAUAUUACGUAGC | -2.94 ± 0.24 | -3.31 ± 0.3
41 | CACGAGCAAUAUUACGUAUC | -2.94 ± 0.38 | -2.81 ± 0.36
42 | CACGAGCAAUAUUACGUAUU | -4.05 ± 0.17 | -2.48 ± 0.13
43 | CACGAGCAAUAUUACGUCAC | -3.41 ± 0.2 | -3.18 ± 0.37
44 | CACGAGCAAUAUUACGUGGA | -3.08 ± 0.17 | -2.2 ± 0.17
45 | CACGAGCAAUAUUACGUGGC | -4.09 ± 0.37 | -2.13 ± 0.21
46 | CACUAGCAAUAUUACGACCA | -1.18 ± 0.14 | -1.69 ± 0.21
47 | CACUAGCAAUAUUACGAGCG | -0.458 ± 0.083 | 0.257 ± 0.086
48 | CACUAGCAAUAUUACGAUCA | -2.46 ± 0.17 | -1.22 ± 0.16

Row | Sequence | self-splicing fitness (ln) (30 °C) | self-splicing fitness (ln) (37 °C)
49 | CACUAGCAAUAUUACGAUCU | -3.56 ± 0.19 | -2.18 ± 0.18
50 | CACUAGCAAUAUUACGCACC | -2.29 ± 0.18 | -0.458 ± 0.19
51 | CACUAGCAAUAUUACGCGAU | -2.63 ± 0.23 | -2.12 ± 0.28
52 | CACUAGCAAUAUUACGCUAC | – | -2.31 ± 0.25
53 | CACUAGCAAUAUUACGGCGC | -2.98 ± 0.15 | -1.11 ± 0.15
54 | CACUAGCAAUAUUACGGCGU | -1.8 ± 0.12 | -0.74 ± 0.11
55 | CACUAGCAAUAUUACGGGAU | -4.27 ± 0.21 | -2.58 ± 0.15
56 | CACUAGCAAUAUUACGGUAC | -3.09 ± 0.2 | -2.87 ± 0.19
57 | CACUAGCAAUAUUACGGUAU | -3.41 ± 0.23 | -0.916 ± 0.13
58 | CACUAGCAAUAUUACGGUGU | -3.65 ± 0.15 | -2.95 ± 0.21
59 | CACUAGCAAUAUUACGUAUC | -3.43 ± 0.25 | -2.27 ± 0.19
60 | CACUAGCAAUAUUACGUCAC | -4.12 ± 0.29 | -2.01 ± 0.21
61 | CACUAGCAAUAUUACGUGAA | -3.83 ± 0.15 | -3.05 ± 0.18
62 | CACUAGCAAUAUUACGUGAC | -2.12 ± 0.14 | -2.36 ± 0.19
63 | CACUAGCAAUAUUACGUGAG | -3.33 ± 0.14 | -2.91 ± 0.23
64 | CACUAGCAAUAUUACGUUCA | -2.34 ± 0.17 | -2.49 ± 0.2
65 | CAGAAGCAAUAUUACGAACG | -0.0252 ± 0.12 | 0.182 ± 0.16
66 | CAGAAGCAAUAUUACGAUAA | -2.32 ± 0.17 | -2.02 ± 0.26
67 | CAGAAGCAAUAUUACGAUCU | -1.88 ± 0.12 | -0.995 ± 0.1
68 | CAGAAGCAAUAUUACGAUUA | -2.93 ± 0.17 | -1.51 ± 0.12
69 | CAGAAGCAAUAUUACGCAUC | -4.43 ± 0.37 | -2.37 ± 0.14
70 | CAGAAGCAAUAUUACGCAUU | -4.37 ± 0.27 | -2.92 ± 0.2
71 | CAGAAGCAAUAUUACGCCGG | -0.314 ± 0.13 | -0.619 ± 0.17
72 | CAGAAGCAAUAUUACGCGAU | -4.46 ± 0.32 | -2.59 ± 0.21

Row | Sequence | self-splicing fitness (ln) (30 °C) | self-splicing fitness (ln) (37 °C)
73 | CAGAAGCAAUAUUACGCGCU | -2.62 ± 0.17 | -1.92 ± 0.18
74 | CAGAAGCAAUAUUACGCUGA | -2.87 ± 0.18 | -1.98 ± 0.15
75 | CAGAAGCAAUAUUACGCUUU | -2.99 ± 0.17 | -3.59 ± 0.26
76 | CAGAAGCAAUAUUACGGACU | -2.88 ± 0.27 | -0.24 ± 0.31
77 | CAGAAGCAAUAUUACGGCAG | -0.0496 ± 0.063 | 0.33 ± 0.083
78 | CAGAAGCAAUAUUACGGCGU | -2.01 ± 0.18 | -1.18 ± 0.18
79 | CAGAAGCAAUAUUACGGCUC | -2.64 ± 0.28 | -0.31 ± 0.21
80 | CAGAAGCAAUAUUACGGUGU | -3.05 ± 0.12 | -2.22 ± 0.14
81 | CAGAAGCAAUAUUACGUCGA | -2.1 ± 0.13 | -0.369 ± 0.1
82 | CAGAAGCAAUAUUACGUGAG | -1.05 ± 0.064 | -0.806 ± 0.076
83 | CAGCAGCAAUAUUACGACCG | -0.0535 ± 0.096 | 0.48 ± 0.12
84 | CAGCAGCAAUAUUACGACUG | -3.64 ± 0.24 | -2.76 ± 0.33
85 | CAGCAGCAAUAUUACGAGGC | -3.04 ± 0.17 | -2.92 ± 0.2
86 | CAGCAGCAAUAUUACGCAAA | -3.14 ± 0.34 | -1.77 ± 0.23
87 | CAGCAGCAAUAUUACGCUCA | -0.65 ± 0.085 | -0.0891 ± 0.11
88 | CAGCAGCAAUAUUACGCUGG | -2.69 ± 0.15 | -2.43 ± 0.17
89 | CAGCAGCAAUAUUACGGAAA | -3.12 ± 0.14 | -2.19 ± 0.16
90 | CAGCAGCAAUAUUACGGACU | -2.43 ± 0.21 | -1.41 ± 0.13
91 | CAGCAGCAAUAUUACGGCGA | -0.356 ± 0.11 | -0.114 ± 0.12
92 | CAGCAGCAAUAUUACGGUAA | -1.97 ± 0.12 | -1.41 ± 0.12
93 | CAGCAGCAAUAUUACGUAGU | -3.03 ± 0.12 | -2.56 ± 0.13
94 | CAGCAGCAAUAUUACGUAUU | -3.51 ± 0.25 | -2.23 ± 0.22
95 | CAGCAGCAAUAUUACGUGGA | -3.09 ± 0.13 | -1.84 ± 0.12
96 | CAGGAGCAAUAUUACGAAGG | -1.43 ± 0.13 | -0.955 ± 0.18
